Measured values: patent publication US20260242478A1 (published 2026)

Key:
[1] = target: T1, anti-CD28 scFv (VH - linker 1 - VL) (biotinylated (site not given)); test: phage ELISA; biotinylated anti-CD28 scFv on neutravidin plate, clonal phage supernatant, anti-M13-HRP detection;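 further: before phage addition, wells were pretreated with soluble CD28 protein in blocking buffer, or with blocking buffer only as the comparison, then phage were added without washing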
[2] = target: T1, anti-CD28 scFv (VH - linker 1 - VL); test: phage ELISA as before, wells pre-incubated with soluble CD28 (competitor)
Protocol: (§1) Clonal phage were harvested as crude supernatants and screened via standard enzyme linked immunosorbent assays (ELISAs). […] Prior to the addition of clonal phage, wells were incubated with blocking buffer and CD28 soluble protein or blocking buffer alone. Without washing or aspirating, clonal phage supernatants were then added to the wells and incubated for a short time. Wells were then washed followed by detection of bound phage using a horse radish peroxidase conjugated anti-M13 antibody.

[3] = target: T2, anti-CD28 scFv (VH - linker 1 - VL) (biotinylated (site not stated)); test: clonal phage ELISA; biotinylated anti-CD28 scFv on neutravidin plate, anti-M13-HRP detection;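 further: crude supernatants of phage clones were tested in wells pretreated with blocking buffer either alone or supplemented with soluble CD28 protein before phage addition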
T2 construct: Captured as biotinylated scFv on neutravidin coated plates in the clonal phage ELISA
T2 sequence (scFv, as listed by the source): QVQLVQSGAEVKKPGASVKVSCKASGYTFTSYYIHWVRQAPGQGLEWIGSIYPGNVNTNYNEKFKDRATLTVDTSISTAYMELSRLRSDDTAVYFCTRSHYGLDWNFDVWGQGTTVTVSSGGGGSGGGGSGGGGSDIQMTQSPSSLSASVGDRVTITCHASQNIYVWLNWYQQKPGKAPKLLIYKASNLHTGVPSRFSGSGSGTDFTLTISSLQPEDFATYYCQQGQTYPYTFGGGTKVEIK

[4] = target: T2, anti-CD28 scFv (VH - linker 1 - VL); test: clonal phage ELISA; captured anti-CD28 scFv pre-incubated with soluble CD28 (competitor), anti-M13-HRP detection;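 further: crude clonal phage supernatants added to wells pretreated with soluble CD28 in blocking buffer, compared against wells given blocking buffer only, then bound phage measured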
Protocol: as §1

[5] = target: T3, Anti-CD28 scFv (VH - linker 1 - VL) (biotinylated (site not stated)); test: phage ELISA; biotinylated anti-CD28 scFv on neutravidin plate, wells pre-incubated with soluble CD28 (competitor), anti-M13-HRP detection;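 further: bound clonal phage detected by peroxidase-labelled anti-M13 antibody, compared against wells given blocking buffer alone without soluble CD28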
T3 construct: Biotinylated scFv captured on neutravidin coated plates in the panning ELISA
T3 sequence (scFv, as listed by the source): as above

[6] = target: anti-CD28 scFv (VH - linker 1 - VL) (biotinylated (site not stated)); test: phage ELISA; biotinylated anti-CD28 scFv on neutravidin plate, clonal phage supernatant, anti-M13-HRP;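 further: before the phage were added, wells were pre-incubated with soluble CD28 protein in blocking buffer, or with blocking buffer alone, and were not washed in between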
Target sequence in this assay (scFv, as listed by the source): as above

[7] = target: T4, Anti-CD28 scFv (VH - linker 1 - VL) (biotinylated (site not stated)); test: phage ELISA as above, wells pre-incubated with soluble CD28 (competitor);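 further: ELISA of crude clonal phage supernatants added to wells pre-treated with soluble CD28 in blocking buffer, bound phage read out with HRP-conjugated anti-M13 antibody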
T4 construct: Captured as biotinylated scFv on neutravidin plates in the panning ELISA
T4 sequence (scFv, as listed by the source): as above

T1 sequence (scFv, as listed by the source): as above

B1: Phage-66, clonal phage peptide MDWCPRYLWNECFY (peptide)
peptide: MDWCPRYLWNECFY
notes: tested as crude clonal phage supernatant; not shown: pIII of the bacteriophage to which the peptide is fused
CD28 scFv signal [1]: 2.54
CD28 scFv signal in presence of CD28 [2]: 0.358

B2: Phage-67, clonal phage peptide MNWCPTALWHVCFN (peptide)
peptide: MNWCPTALWHVCFN
notes: as for B1
CD28 scFv signal [1]: 1.64
CD28 scFv signal in presence of CD28 [2]: 0.169

B3: Phage-68, clonal phage peptide MDWCPMYMWYECFA (peptide)
peptide: MDWCPMYMWYECFA
notes: as for B1
CD28 scFv signal [1]: 2.48
CD28 scFv signal in presence of CD28 [2]: 0.358

B4: Phage-69, clonal phage peptide MDWCPIHMWADCFA (peptide)
peptide: MDWCPIHMWADCFA
notes: as for B1
CD28 scFv signal [1]: 2.46
CD28 scFv signal in presence of CD28 [2]: 0.143

B5: Phage-70, clonal phage peptide ITWCPSSMWNRCFI (peptide)
peptide: ITWCPSSMWNRCFI
notes: as for B1
CD28 scFv signal [1]: 0.379
CD28 scFv signal in presence of CD28 [2]: 0.11

B6: Phage-71, clonal phage peptide MDWCPRYLWHECFA (peptide)
peptide: MDWCPRYLWHECFA
notes: as for B1
CD28 scFv signal [1]: 2.63
CD28 scFv signal in presence of CD28 [2]: 0.429

B7: Phage-72, clonal phage peptide MFWCPTTMWNRCFT (peptide)
peptide: MFWCPTTMWNRCFT
notes: as for B1
CD28 scFv signal [1]: 0.662
CD28 scFv signal in presence of CD28 [2]: 0.338

B8: Phage-78, clonal phage peptide MDWCPRHLWHECFN (peptide)
peptide: MDWCPRHLWHECFN
notes: as for B1
CD28 scFv signal [1]: 2.65
CD28 scFv signal in presence of CD28 [2]: 0.704

B9: Phage-73, clonal phage peptide MDWCPRALWHECFN (peptide)
peptide: MDWCPRALWHECFN
notes: as for B1
CD28 scFv signal [1]: 2.69
CD28 scFv signal in presence of CD28 [2]: 0.401

B10: Phage-86, clonal phage peptide MDWCPRHLWAECFF (peptide)
peptide: MDWCPRHLWAECFF
notes: as for B1
CD28 scFv signal [1]: 2.61
CD28 scFv signal in presence of CD28 [2]: 0.292

B11: Phage-92, clonal phage peptide MDWCPRHLWHECFF (peptide)
peptide: MDWCPRHLWHECFF
notes: as for B1
CD28 scFv signal [1]: 2.58
CD28 scFv signal in presence of CD28 [2]: 0.373

B12: Phage-74, clonal phage peptide MDWCPRDMWLFCYN (peptide)
peptide: MDWCPRDMWLFCYN
notes: as for B1
CD28 scFv signal [1]: 2.71
CD28 scFv signal in presence of CD28 [2]: 1.02

B13: Phage-75, clonal phage peptide MDWCPRSHWHVCYN (peptide)
peptide: MDWCPRSHWHVCYN
notes: as for B1
CD28 scFv signal [1]: 1.95
CD28 scFv signal in presence of CD28 [2]: 0.281

B14: Phage-76, clonal phage peptide MDWCPRYLWSDCFA (peptide)
peptide: MDWCPRYLWSDCFA
notes: as for B1
CD28 scFv signal [1]: 2.73
CD28 scFv signal in presence of CD28 [2]: 1.53

B15: Phage-77, clonal phage peptide MDWCPFYLWDECFN (peptide)
peptide: MDWCPFYLWDECFN
notes: as for B1
CD28 scFv signal [1]: 2.67
CD28 scFv signal in presence of CD28 [2]: 0.291

B16: Phage-79, clonal phage peptide MDWCPRDLWHECFS (peptide)
peptide: MDWCPRDLWHECFS
notes: as for B1
CD28 scFv signal [1]: 2.65
CD28 scFv signal in presence of CD28 [2]: 0.382

B17: Phage-82, clonal phage peptide MDWCPRDLWTECFA (peptide)
peptide: MDWCPRDLWTECFA
notes: as for B1
CD28 scFv signal [1]: 2.63
CD28 scFv signal in presence of CD28 [2]: 0.151

B18: Phage-83, clonal phage peptide … (peptide)
peptide: MDWCPRFLWDECFN
notes: as for B1
CD28 scFv signal [1]: 2.63
CD28 scFv signal in presence of CD28 [2]: 0.483

B19: Phage-84, clonal phage peptide MDWCPKYLWSVCFF (peptide)
peptide: MDWCPKYLWSVCFF
notes: as for B1
CD28 scFv signal [1]: 2.62
CD28 scFv signal in presence of CD28 [2]: 0.826

B20: Phage-85, clonal phage peptide MDWCPMDLWYQCFN (peptide)
peptide: MDWCPMDLWYQCFN
notes: as for B1
CD28 scFv signal [1]: 2.62
CD28 scFv signal in presence of CD28 [2]: 0.187

B21: Phage-87, clonal phage peptide MDWCPKDLWYLCFA (peptide)
peptide: MDWCPKDLWYLCFA
notes: as for B1
CD28 scFv signal [1]: 2.61
CD28 scFv signal in presence of CD28 [2]: 0.213

B22: Phage-88, clonal phage peptide MDWCPIHLWHYCFN (peptide)
peptide: MDWCPIHLWHYCFN
notes: as for B1
CD28 scFv signal [1]: 2.6
CD28 scFv signal in presence of CD28 [2]: 0.453

B23: Phage-89, clonal phage peptide MDWCPRALWNVCFN (peptide)
peptide: MDWCPRALWNVCFN
notes: as for B1
CD28 scFv signal [1]: 2.6
CD28 scFv signal in presence of CD28 [2]: 0.472

B24: Phage-90, clonal phage peptide MDWCPIDLWHLCFY (peptide)
peptide: MDWCPIDLWHLCFY
notes: as for B1
CD28 scFv signal [1]: 2.59
CD28 scFv signal in presence of CD28 [2]: 0.488

B25: Phage-91, clonal phage peptide … (peptide)
peptide: MDWCPRDLWFLCYN
notes: as for B1
CD28 scFv signal [1]: 2.59
CD28 scFv signal in presence of CD28 [2]: 0.424

B26: Phage-197 (peptide)
peptide: MDWCPRHMWYECFF
notes: tested as crude clonal phage supernatant
CD28 scFv signal [3]: 2.34
CD28 scFv signal in presence of CD28 [4]: 0.298

B27: Phage-198 (peptide)
peptide: MDWCPRAMWNHCFN
notes: as for B26
CD28 scFv signal [3]: 2.33
CD28 scFv signal in presence of CD28 [4]: 0.426

B28: Phage-199 (peptide)
peptide: MDWCPRNMWAQCFA
notes: as for B26
CD28 scFv signal [3]: 2.31
CD28 scFv signal in presence of CD28 [4]: 0.209

B29: Phage-200 (peptide)
peptide: MFWCPFDMWHFCFN
notes: as for B26
CD28 scFv signal [3]: 2.29
CD28 scFv signal in presence of CD28 [4]: 0.469

B30: Phage-201 (peptide)
peptide: MDWCPRDMWDQCFD
notes: as for B26
CD28 scFv signal [3]: 2.29
CD28 scFv signal in presence of CD28 [4]: 0.119

B31: Phage-202 (peptide)
peptide: MFWCPMDMWDQCFN
notes: as for B26
CD28 scFv signal [3]: 2.26
CD28 scFv signal in presence of CD28 [4]: 0.207

B32: Phage-203 (peptide)
peptide: MSWCPRDMWFYCYA
notes: as for B26
CD28 scFv signal [3]: 2.25
CD28 scFv signal in presence of CD28 [4]: 0.174

B33: Phage-204 (peptide)
peptide: MDWCPRHMWNVCFS
notes: as for B26
CD28 scFv signal [3]: 2.25
CD28 scFv signal in presence of CD28 [4]: 0.13

B34: Phage-205 (peptide)
peptide: MDWCPTDMWHHCFL
notes: as for B26
CD28 scFv signal [3]: 2.2
CD28 scFv signal in presence of CD28 [4]: 0.126

B35: Phage-206 (peptide)
peptide: IHWCPINMWDKCYN
notes: as for B26
CD28 scFv signal [3]: 2.08
CD28 scFv signal in presence of CD28 [4]: 0.203

B36: Phage-207 (peptide)
peptide: MDWCPRAMWHECFY
notes: as for B26
CD28 scFv signal [3]: 1.92
CD28 scFv signal in presence of CD28 [4]: 0.129

B37: Phage-208 (peptide)
peptide: MDWCPTDMWIVCFA
notes: as for B26
CD28 scFv signal [3]: 1.5
CD28 scFv signal in presence of CD28 [4]: 0.172

B38: Phage-209 (peptide)
peptide: IDWCPQDMWFYCFN
notes: as for B26
CD28 scFv signal [3]: 1.42
CD28 scFv signal in presence of CD28 [4]: 0.16

B39: Phage-210 (peptide)
peptide: MDWCPRDMWFECFA
notes: as for B26
CD28 scFv signal [3]: 1.31
CD28 scFv signal in presence of CD28 [4]: 0.143

B40: Phage-212 (peptide)
peptide: MDWCPRAMWDKCFF
notes: as for B26
CD28 scFv signal [3]: 0.985
CD28 scFv signal in presence of CD28 [4]: 0.094

B41: Phage-213 (peptide)
peptide: MNWCPSYMWDQCFA
notes: as for B26
CD28 scFv signal [3]: 0.854
CD28 scFv signal in presence of CD28 [4]: 0.105

B42: Phage-214 (peptide)
peptide: MDWCPTYMWSECFN
notes: as for B26
CD28 scFv signal [3]: 0.754
CD28 scFv signal in presence of CD28 [4]: 0.107

B43: Phage-215 (peptide)
peptide: MDWCPRYMWNECFN
notes: as for B26
CD28 scFv signal [3]: 0.687
CD28 scFv signal in presence of CD28 [4]: 0.128

B44: Phage-216 (peptide)
peptide: MDWCPMNMWYQCFN
notes: as for B26
CD28 scFv signal [3]: 0.639
CD28 scFv signal in presence of CD28 [4]: 0.137

B45: Phage-217 (peptide)
peptide: MDWCPWDMWDKCFN
notes: as for B26
CD28 scFv signal [3]: 0.586
CD28 scFv signal in presence of CD28 [4]: 0.108

B46: Phage-218 (peptide)
peptide: TFGCPTTMWNRCFA
notes: as for B26
CD28 scFv signal [3]: 0.181
CD28 scFv signal in presence of CD28 [4]: 0.068

B47: Phage-289 (peptide)
peptide: MDWCPRYLWNVCFA
notes: tested as crude phage supernatant
CD28 scFv signal in presence of CD28 [5]: 0.28

B48: Phage-297 (peptide)
peptide: MDWCPRHLWTECFS
notes: as for B47
CD28 scFv signal in presence of CD28 [5]: 0.243

B49: Phage-298 (peptide)
peptide: MDWCPLYLWAECFN
notes: as for B47
CD28 scFv signal in presence of CD28 [5]: 0.193

B50: Phage-358 clonal phage peptide MDWCPPHLWHECFF (peptide)
peptide: MDWCPPHLWHECFF
CD28 scFv signal [6]: 1.45

B51: Phage-390 (peptide)
peptide: IDWCPMHMWDFCYN
CD28 scFv signal in presence of CD28 [7]: 0.232

B52: Phage-392 (peptide)
peptide: LHWCPTSMWTYCYY
CD28 scFv signal in presence of CD28 [7]: 2.46
